{
  "source": "the DeepSol protein solubility set",
  "data": [
    {"assay": "soluble on expression in E. coli; label from the status in PepcDB or PDB records", "values": [
      {"sequence": "IEKNQIDMANGQELLISESLAVSQATTTFIDQLRILAPFGTDNTVPTFVFKEITPTQIRQIGADNAHLKFQMNQEGAQLDAIAFQMGPQADELAQGTADVAGQLSINEWNGRKKPQ", "soluble on expression in E. coli": "not soluble"},
      {"sequence": "SQGRKPSSKLISFQRKLANETEIQKLNLSQSDYVVRMERVRYADKVPLVYEVASIPENLIKGFEQSEVTEHFFKTLTENGYEIGKSQQTIYARNASERVASHLEVNAGHAILALTQVSYFTDGKPFEYVHGQYVGDRFE", "soluble on expression in E. coli": "not soluble"},
      {"sequence": "LIFTCDKNKLQESIAIAQKAITGKSTMPILEGLYIEASENIVTIIGSDKDVSIETKFEADVTEPGKLVVDAKIFGEIIRKLPNDKIKIETVSEEAIRITCQKSVFDLLHMNAEDFPSLPKINENMIFSINQGILKNMIKGTSFAIAQDETRPILQGILFEIKDSKLNLVALDGYRLAIRTENIDTNNTINAVIPGKTLNEVAKILEDSEEIVNITFTPNHILFNMGDTKVISRLLEGEFIKYDALLPKEHKLQIEVDKQTLQNGIERASLMAKEGNSNLVKFDITDENIVITSNSQLGKVREEVTIKLQGDEIQIAFNSKYLLDVLKNMEEDKIELRMTSSISPCIIRNKNNDLCEYLVLPVRIAR", "soluble on expression in E. coli": "soluble"},
      {"sequence": "MMSIAQVRSAGSAGNFYTDKDNYYVLGSMGERWAGRGAEQLGLQGSVDKDVFTRLLEGRLPDGADLSRMQDGSNRHRPGYDLTFSAPKSVSMMAMLGGDKRLIDAHNQAVDFAVRQVEALASTRVMTDGQSETVLTGNLVMALFNHDTSRDQEPQLHTHAVVANVTQHNGEWKTLSSDKVGKTGFIENVYANQIAFGRLYREKLKEQVEALGYETEVVGKHGMWEMPGVPVEAFSGRSQTIREAVGEDASLKSRDVAALDTRKSKQHVDPEIKMAEWMQTLKETGFDIRAYRDAADQRADS", "soluble on expression in E. coli": "soluble"},
      {"sequence": "MRGSHHHHHHGLVPRGSMKITVLGCGALGQLWLTALCKQGHEVQGWLRVPQPYCSVNLVETDGSIFNESLTANDPDFLATSDLLLVTLKAWQVSDAVKSLASTLPVTTPILLIHNGMGTIEELQNIQQPLLMGTTTHAARRDGNVIIHVANGITHIGPARQQDGDYSYLADILQTVLPDVAWHNNIRAELWRKLAVNCVINPLTAIWNCPNGELRHHPQEIMQICEEVAAVIEREGHHTSAEDLRDYVMQVIDATAENISSMLQDIRALRHTEIDYINGFLLRRARAHGIAVPENTRLFEMVKRKESEYERIGTGLPRPW", "soluble on expression in E. coli": "soluble"},
      {"sequence": "MRHMSGDHAALVLGAGAGRRLGRSKQLLMRDGEPLLRRAARIALLTAPRRCVVVLGADADTLSEVLQDLDIEILRHPDWSEGMGSSLAALRRHVQGDPALRRSLILGCDQPALDAPHLRSLLEEADRAVSGCATSGYSGVRGIPAVVTHTAWADVPLQADSGLRGLFASLDMQSLGCVSAPALALDIDTPADLATAQQRGWVDAELEHHHHHH", "soluble on expression in E. coli": "not soluble"},
      {"sequence": "MGSDKIHHHHHHMQLIFFRGMKELLSTMDLDTDANTIPELKERAHMLCARFLGGAWKTVPLEHLRISRIKGGMSNMLFLCRLSEVYPPIRNEPNKVLLRVYFNPETESHLVAESVIFTLLSERHLGPKLYGIFSGGRLEEYIPSRPLSCHEISLAHMSTKIAKRVAKVHQLEVPIWKEPDYLCEALQRWLKQLTGTVDAEHRFDLPEECGVSSVNCLDLARELEFLRAHISLSKSPVTFCHNDLQEGNILLPKASSGNIRMPSLSDETQALGNSLSAFNPADPRLVLIDFEYASYNYRAFDFANHFIEWTIDYDIDEAPFYKIQTENFPENDQMLEFFLNYLREQGNTRENELYKKSEDLVQETLPFVPVSHFFWGLRERSSVAVLQT", "soluble on expression in E. coli": "not soluble"},
      {"sequence": "MLMGMKPLRLCAILASIPPLAMVVRGRIRPKNSRKRFPTIVVLGTAQYDGVPSRQFAARLKWAAEQWHTQRSQKVVTVGGKLPEDRFTEAAVAREYLIKEHVDSDLIVAVEQGHDTRGSLRAALSELEQPILIITDPNHSLRAELIARSEGIAAWASSTPYCPTTFPRWQWWWTFVHEQGGLCVVLIELVAGKDVAQKVEDALRRLQAWLRPSRRARHEQLREERLEHHHHHH", "soluble on expression in E. coli": "not soluble"},
      {"sequence": "MRTSFFAAAALLAVSAFAQAHEYNAGQLHIEHPWALALPPTSPNGAAYFVVQNHGKENDTLLGADTPRAASAEVHEHVHKNGMMSMQKVDSVDVAPGKDLRFAPGGYHLMLMGLKQPLVAGERFPLTLHFRKAGDVPVEIVVESKAPAEQGGHEQHGH", "soluble on expression in E. coli": "soluble"},
      {"sequence": "MLEQIRNTHPLVYQNFSALPDGEKHLRSILAIDRYWEKLDLPVPDVILAGSRLPVDACVEEACDILYAGGTLGLLHAAVMSKKYGRKVLVIDRAEPGRTTRDWNISRGELLRLADTGVFTSEELDSTIVRMYKTGWVEFHAPAERRKRLYMDEVLDCAVDADRLLGMACKKVLAGGGSKVLGHTSFVCCYQFPDHLVVQVEELSGKPRYFRTQVLVDAMGIVSPVAMQLNRGRPQTHVCPTVGTIASGFENADFEVGEILASTEDAEVSGKRGRQLIWEGFPAKGDEYITYLFFYDKVDSPNDKSLLGLFEAYFRKLPEYKKPGPNFTIHRPVFGIIPAYFHDGAGCTRVVSGERIALLGDAASLASPLTFCGFGSVVRNLDRMTSGLDRAMREGRLGAAELANISAYEPNVASMATLMKYMCYDPETDEPGFVNEMMNEVMIVLDELPQRYRQAMFRDEMKVEELVTVMLKVAWRYPKILKATWNKLGVGGSVGFVKNLAGWAISQNEKRGLEHHHHHH", "soluble on expression in E. coli": "not soluble"},
      {"sequence": "MASTTQNTPTKDLAEISERFEKLRARSSNNMATFNTTSSYNRTYEKKVIEEGSPNVRVTTQTHTAIPGMPDLGNIHSSMLSNFPNLAISSPSVVGSQNGNLTSIRVTNTSFHAILDVSKYDADSLKVTVVDNNIIVEGSHGEKEDTYGTIESTFKRRFPLPKAVAPESVQSQLTADGHLTIDAKAPEPKQEGARPIQIKVINTSAEQQKQ", "soluble on expression in E. coli": "not soluble"},
      {"sequence": "MDKVYLTWWQVDRAIFALAEKLREYKPDVIIGVARGGLIPAVRLSHILGDIPLKVIDVKFYKGIDERGEKPVITIPIHGDLKDKRVVIVDDVSDTGKTLEVVIEEVKKLGAKEIKIACLAMKPWTSVVPDYYVFRTEKWIVFPWEEFPVIEKE", "soluble on expression in E. coli": "soluble"},
      {"sequence": "MSLASTEEETQAVMKVYSKEDYSVVNRFESHGGGWGYSAHSVEAIRFSADTDILLGGLGLFGGRGEYTAKIKLFELGPDGGDHETDGDLLAETDVLAYDCAAREKYAMMFDEPVLLQAGWWYVAWARVSGPSSDCGSHGQASITTDDGVIFQFKSSKKSNNGTDVNAGQIPQLLYRLPTSDGSTSKGKQQTSEPVHILKRSFARTVSVECFESLLSILHWSWTTLVLGVEELRGLKGFQFTATLLDLERLRFVGTCCLRLLRVYTCEIYPVSATGKAVVEETSKLAECIGKTRTLLRKILSEGVDHCMVKLDNDPQGYLSQPLRLLEAVLQECHNTFTACFHSFYPTPALQWACLCDLLNCLDQEANFKTSSSRLLAAVMSALCHTSVKLTSLFPIAYDGEVLLRSIVKQVSTENDSTLVHRFPLLVGHMEKLSQSEENISGMTSFREVLEKMLVIVVLPVRNSLRRESELFSSHLVSNTCGLLASIVSELTASALGSEVDGLNSLHSVKASANRFTKTSQGRSWNTGNGSPDAICFAVDKPGIVVVGFAVYGGGGIHEYELEVLVDDSEHAGDSTHSHRWTSLELVKGTYTTDDSPSDIAEIRLDKVVPLKENVKYAVRLRNYGSRTANGDGGMTTVQCPDGVTFTFSTCSLSSNGTNQTRGQIPQILYYRSEEGHHHHHH", "soluble on expression in E. coli": "soluble"},
      {"sequence": "MKRPHGYQITSLRADKYGGYYAANFVGNEILYFDVNNNVNALVKDGFSYLKSPYDVIEANNLLYVTLYSSDEIGVYDKVLGVKRKSIGNKGTKDGELLAPQYMAIDKRNYIYVSEWGNKRVSKFGLEGDFILHFGSRTSGYKGLLGPTGVTYLNENIYVADSLRNTIEVFDTSGNHLYSVFTSIEGIEGLSSDFVGNNVIVSSKDGVYKYSIAKKTITKILKADKMNSKISSSILDANNQMIVSDFNNAKVSVYKSDASLYDSLEHHHHHH", "soluble on expression in E. coli": "soluble"},
      {"sequence": "MHHHHHHSSGVDLGTENLYFQSMEETEKWMEEAMHMAKEALENTEVPVGCLMVYNNEVVGKGRNEVNQTKNATRHAEMVAIDQVLDWCRQSGKSPSEVFEHTVLYVTVEPCIMCAAALRLMKIPLVVYGCQNERFGGCGSVLNIASADLPNTGRPFQCIPGYRAEEAVEMLKTFYKQENPNAPKSKVRK", "soluble on expression in E. coli": "soluble"},
      {"sequence": "MPDGAQIQGLRPNGQSMEADMKLAVVTGQIVCTVRHQGLAHDKLLMVEMIDAQGNPDGQCAVAIDSIGAGTGEWVLLVSGSSARQAHRSELSPVDLCVIGIVDEVVAGGKVVFHKLEHHHHHH", "soluble on expression in E. coli": "not soluble"},
      {"sequence": "MELADVGAAASSQGVHDQVLPTPNASSRVIVHVDLDCFYAQVEMISNPELKDKPLGVQQKYLVVTCNYEARKLGVKKLMNVRDAKEKCPQLVLVNGEDLTRYREMSYKVTELLEEFSPVVERLGFDENFVDLTEMVEKRLQQLQSDELSAVTVSGHVYNNQSINLLDVLHIRLLVGSQIAAEMREAMYNQLGLTGCAGVASNKLLAKLVSGVFKPNQQTVLLPESCQHLIHSLNHIKEIPGIGYKTAKCLEALGINSVRDLQTFSPKILEKELGISVAQRIQKLSFGEDNSPVILSGPPQSFSEEDSFKKCSSEVEAKNKIEELLASLLNRVCQDGRKPHTVRLIIRRYSSEKHYGRESRQCPIPSHVIQKLGTGNYDVMTPMVDILMKLFRNMVNVKMPFHLTLLSVCFCNLKALNTAK", "soluble on expression in E. coli": "soluble"},
      {"sequence": "MAKELAEKAKEAFLDDDFDVAVDLYSKAIDLDPNCAAFFADRAQANIKIDNFTEAVVDANKAIELEPTLAKAYLRKGTACMKLEEYSTAKAALEKGASVAPNEPKFKKMIDECDLRIAEEEKDLVQPMPPSLPSSSTTPLATEADAPPVPIPAAPAKPMFRHEFYQKPEEAVVTIFAKKVPKENVTVEFGEQILSVVIDVAGEEAYHLQPRLFGKIIPEKCRFEVLSTKVEIRLAKAEIITWASLEYGKGQSVLPKPNVSSALSQRPVYPSSKPAKDWDKLEAEVKKQEKDEKLDGDAAMNKFFSDIYSSADEDMRRAMNKSFAESNGTVLSTNWKEVGTKKVESTPPDGMELKKWEY", "soluble on expression in E. coli": "not soluble"},
      {"sequence": "MTDNTAVRRRYEKSFTERPGFTEDEIEEIREAFNLLDTDGTGTIDPKEIKCAMQSLGLDAKNPMIFRMIADLEKDGYSSIDFEEFMEVITSKLGNKDTREGIQRIFNLFDDDKTGSISLKNLKRVAKELGETLTDEELRDMIDRADSKGEGEISFEDFYTIMTKKSFL", "soluble on expression in E. coli": "not soluble"},
      {"sequence": "MSLPPRPYDNRPPTGVRAKPVINLNIEYTSCNDSVAPACSTRPMLIENMINQRNVNINVLEGYDPKSKSVINQHSIYHLYEFESKTRFLDRIPRPRVSRFTELKTRFLCCRYVLCAIDDVMQKQKPMELMAIRLNGDIYIGANKSMDLQTDKKTQEAAFGGLNFAMKVTRESDQKILKKHHSVVKQLRIENTRNSMSMSIFVSSVARAFDQRGNVVELKTVGSKVMGKVQNLSRLKARDWWLRALLSGADRIVYGLRMDNMKVNEIHEAQLTDFTKGHFRFDGAKLFSEIFKIFSTIDKIIGAEGDMCMVKSDGSTPISVTLTTRESLKRSPFW", "soluble on expression in E. coli": "not soluble"},
      {"sequence": "MDSPAWMFTKALSHRQKVTRLYKRCLREVDNWYGGNNLEVRFQKCIIRARFDANADEVDTRKSQILLADGCRQLWEKRHFKPFRFALDPGGSSYDRERESPDEIVDSDQWTLAEREQFPYYFNTREQRKKELLTHWAKIEKAWDEEIASIQTQLPAAAPTVSK", "soluble on expression in E. coli": "not soluble"},
      {"sequence": "MPMLDMIVSRVITLLQGRESRSLRVTQAELAAGLSKTVYLHNAQLILPLPDLAFIQSLVAYDHHHPAVSTVLEAWAYGVRLHLQIHQQLLTALPLRELRRLPVTLTDHMSTPVKLAAAAGLSYASVIHWHDCWVLLEKQTLITALAREVMERQNIKLIWQE", "soluble on expression in E. coli": "not soluble"}
    ]}
  ]
}
